The series deals with IKK-phosphorylated IκBα in the IκBα/NF-κB complex.

Among the data in patent publication US20030166587 are in vitro ubiquitination of pIκBα in the presence of E1 and E2 (UBC5C), efficiency against human and mouse β-TrCP (fold less efficient) values, retold here.

IKK-phosphorylated IκBα in the IκBα/NF-κB complex, sequence (chain, as listed by the source): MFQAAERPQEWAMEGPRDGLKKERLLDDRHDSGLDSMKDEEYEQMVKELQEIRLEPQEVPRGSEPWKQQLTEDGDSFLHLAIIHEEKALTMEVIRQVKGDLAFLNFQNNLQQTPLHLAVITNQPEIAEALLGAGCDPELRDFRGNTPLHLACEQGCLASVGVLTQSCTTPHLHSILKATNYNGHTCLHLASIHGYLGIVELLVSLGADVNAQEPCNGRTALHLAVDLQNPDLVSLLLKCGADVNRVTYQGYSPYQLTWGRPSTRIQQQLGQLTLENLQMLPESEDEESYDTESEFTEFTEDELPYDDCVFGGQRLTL

As to Drosophila Slimb protein, FLAG-tagged, the in vitro ubiquitination of pIκBα in the presence of E1 and E2 (UBC5C), efficiency against human and mouse β-TrCP (fold less efficient) was above 10.
